Holding throughout (assay): BLI
In general terms: In BLI a coated tip is dipped into the sample, and binding shifts an interference pattern.

Experiment [1] has as its target T1, anti-idiotype vNAR-Fc variant S9 (bamboo shark, biotin (EZ-Link Sulfo-NHS-LC-Biotin) in the cellular binding assay only).
T1 chain: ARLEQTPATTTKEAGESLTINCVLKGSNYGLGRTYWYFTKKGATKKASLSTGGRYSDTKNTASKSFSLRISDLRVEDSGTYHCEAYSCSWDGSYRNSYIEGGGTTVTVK

For experiment [2], the target named is T2, anti-idiotype vNAR-Fc variant S2 (bamboo shark, biotin (EZ-Link Sulfo-NHS-LC-Biotin) in the cellular binding assay only).
T2 chain: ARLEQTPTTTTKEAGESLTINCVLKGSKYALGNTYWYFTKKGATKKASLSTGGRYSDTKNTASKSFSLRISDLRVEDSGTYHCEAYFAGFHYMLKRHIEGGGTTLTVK

Experiment [3] deals with T3, anti-idiotype vNAR-Fc variant S4 (bamboo shark).
T3 chain: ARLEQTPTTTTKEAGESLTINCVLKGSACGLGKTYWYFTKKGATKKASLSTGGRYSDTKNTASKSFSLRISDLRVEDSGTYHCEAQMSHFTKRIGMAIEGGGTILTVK

Experiment [4] concerns the target T4, anti-idiotype vNAR-Fc variant S7 (bamboo shark).
T4 chain: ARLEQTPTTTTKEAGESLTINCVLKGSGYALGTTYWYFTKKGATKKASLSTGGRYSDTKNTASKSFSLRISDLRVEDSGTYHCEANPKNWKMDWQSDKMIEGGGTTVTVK

B1: soluble recombinant B-cell receptor (BCR) of lymphoma cell line SUP-B8, produced as full-length IgG (antibody, V domains shown)
VH: LVQSGGEVKKPGASVKVSCKASGYTFHSYGITWVRQAPGQGLEWMGWINGYNGYTNYAQKLQDRVTMTTNTSTNTVYMEVRSLRSDDTAVYYCARDDCSGDNCYMSAYWGQGTVVTVSS
VL: QSVLTQPPSASGTPGQRVTISCSGSSSNIASNYVYWYQQLPGMAPKLLIYRDNQRPSGVPDRFSGSRSGTSASLAISGLRSDDEADYYCATWDDSLSGWVFGGGTKLTVL
In general, Kd refers to the equilibrium constant for the complex coming apart. Lower therefore signals higher affinity. As for B1, the dissociation constant Kd in experiment [1] is 11 nM; in experiment [2] it was 4.5 nM; in experiment [3], 5.3 nM; in experiment [4], 1.9 nM.

The record behind these values is publication PMC7726437 (2020).
